± gives the standard deviation of the averaged measurements.
Test: total protein half-life in vivo (active degradation + dilution); higher = more stable protein
[1] = E. coli NCM3722 delta-clpP, growth: N-lim chemostat, doubling time 6 h
[2] = E. coli NCM3722 delta-hslV, growth: N-lim chemostat, doubling time 6 h
[3] = E. coli NCM3722 delta-lon, growth: N-lim chemostat, doubling time 6 h
[4] = E. coli NCM3722 delta-smpB, growth: N-lim chemostat, doubling time 6 h
[5] = wild type E. coli NCM3722, growth: C-lim chemostat, doubling time 3 h
[6] = wild type E. coli NCM3722, growth: C-lim chemostat, doubling time 6 h
[7] = wild type E. coli NCM3722, growth: C-lim chemostat, doubling time 12 h
[8] = wild type E. coli NCM3722, growth: N-lim chemostat, doubling time 6 h
[9] = wild type E. coli NCM3722, growth: N-lim chemostat, doubling time 12 h
[10] = wild type E. coli NCM3722, growth: P-lim chemostat, doubling time 6 h
[11] = wild type E. coli NCM3722, growth: P-lim chemostat, doubling time 12 h
[12] = E. coli NCM3722 delta-clpP delta-lon delta-hslV, growth: N-lim chemostat, doubling time 6 h

MALYTIGEVALLCDINPVTLRAWQRRYGLLKPQRTDGGHRLFNDADIDRIREIKRWIDNGVQVSKVKMLLSNENVDVQNGWRDQQETLLTYLQSGNLHSLRTWIKERGQDYPAQTLTTHLFIPLRRRLQCQQPTLQALLAILDGVLINYIAICLASARKKQGKDALVVGWNIQDTTRLWLEGWIASQQGWRIDVLAHSLNQLRPELFEGRTLLVWCGENRTSAQQQQLTSWQEQGHDIFPLGI
total protein half-life in vivo [1]: 1.79 h
total protein half-life in vivo [2]: 1.66 h
total protein half-life in vivo [3]: 3.39 ± 0.71 h
total protein half-life in vivo [4]: 1.34 ± 0.26 h
total protein half-life in vivo [5]: 1.64 ± 0.79 h
total protein half-life in vivo [6]: 3.86 ± 0.76 h
total protein half-life in vivo [7]: 4.23 ± 0.31 h
total protein half-life in vivo [8]: 2.04 h
total protein half-life in vivo [9]: 2.49 h
total protein half-life in vivo [10]: 1.98 h
total protein half-life in vivo [11]: 3.04 ± 0.58 h

MAMVEMQTTAALAESRRKMQARRRLKNRIALTLSMATMAFGLFWLIWILMSTITRGIDGMSLALFTEMTPPPNTEGGGLANALAGSGLLILWATVFGTPLGIMAGIYLAEYGRKSWLAEVIRFINDILLSAPSIVVGLFVYTIVVAQMEHFSGWAGVIALALLQVPIVIRTTENMLKLVPYSLREAAYALGTPKWKMISAITLKASVSGIMTGILLAIARIAGETAPLLFTALSNQFWSTDMMQPIANLPVTIFKFAMSPFAEWQQLAWAGVLIITLCVLLLNILARVVFAKNKHG
total protein half-life in vivo [12]: 6.78 ± 1.7 h
total protein half-life in vivo [1]: 5.74 ± 0.15 h
total protein half-life in vivo [2]: > 8 h
total protein half-life in vivo [3]: 4.84 h
total protein half-life in vivo [4]: 4.97 ± 0.05 h
total protein half-life in vivo [5]: 3.37 h
total protein half-life in vivo [6]: 5.11 ± 0.51 h
total protein half-life in vivo [7]: 12.1 ± 1.3 h
total protein half-life in vivo [8]: 5.15 ± 0.12 h
total protein half-life in vivo [9]: 10.6 ± 2 h
total protein half-life in vivo [10]: 4.95 ± 0.35 h
total protein half-life in vivo [11]: 9.13 ± 0.56 h

MANADLDKQPDSVSSVLKVFGILQALGEEREIGITELSQRVMMSKSTVYRFLQTMKTLGYVAQEGESEKYSLTLKLFELGARALQNVDLIRSADIQMRELSRLTKETIHLGALDEDSIVYIHKIDSMYNLRMYSRIGRRNPLYSTAIGKVLLAWRDRDEVKQILEGVEYKRSTERTITSTEALLPVLDQVREQGYGEDNEEQEEGLRCIAVPVFDRFGVVIAGLSISFPTLRFSEERLQEYVAMLHTAARKISAQMGYHDYPF
total protein half-life in vivo [12]: 6.07 ± 1.7 h
total protein half-life in vivo [1]: 6.18 ± 1.6 h
total protein half-life in vivo [2]: 4.82 ± 0.33 h
total protein half-life in vivo [3]: 5.09 ± 0.25 h
total protein half-life in vivo [4]: 5.01 ± 0.17 h
total protein half-life in vivo [5]: 3.01 ± 0.13 h
total protein half-life in vivo [6]: 5.91 ± 0.28 h
total protein half-life in vivo [7]: 10.2 ± 0.83 h
total protein half-life in vivo [8]: 5.255 ± 0.017 h
total protein half-life in vivo [9]: 8.11 ± 0.13 h
total protein half-life in vivo [10]: 5.82 ± 0.61 h
total protein half-life in vivo [11]: 11.1 ± 0.7 h

MANELTWHDVLAEEKQQPYFLNTLQTVASERQSGVTIYPPQKDVFNAFRFTELGDVKVVILGQDPYHGPGQAHGLAFSVRPGIAIPPSLLNMYKELENTIPGFTRPNHGYLESWARQGVLLLNTVLTVRAGQAHSHASLGWETFTDKVISLINQHREGVVFLLWGSHAQKKGAIIDKQRHHVLKAPHPSPLSAHRGFFGCNHFVLANQWLEQRGETPIDWMPVLPAESE
total protein half-life in vivo [1]: 5.184 ± 0.029 h
total protein half-life in vivo [2]: 5.26 ± 0.17 h
total protein half-life in vivo [3]: 5.24 ± 0.29 h
total protein half-life in vivo [4]: 5.6 ± 0.28 h
total protein half-life in vivo [5]: 3.1 ± 0.099 h
total protein half-life in vivo [6]: 5.17 ± 0.19 h
total protein half-life in vivo [7]: 11.2 ± 2.4 h
total protein half-life in vivo [8]: 4.89 ± 0.42 h
total protein half-life in vivo [9]: 10.6 ± 0.65 h
total protein half-life in vivo [10]: 5.97 ± 0.092 h

MANFFIRRPIFAWVLAIILMMAGALAILQLPVAQYPTIAPPAVSVSANYPGADAQTVQDTVTQVIEQNMNGIDNLMYMSSTSDSAGSVTITLTFQSGTDPDIAQVQVQNKLQLATPLLPQEVQQQGISVEKSSSSYLMVAGFVSDNPGTTQDDISDYVASNVKDTLSRLNGVGDVQLFGAQYAMRIWLDADLLNKYKLTPVDVINQLKVQNDQIAAGQLGGTPALPGQQLNASIIAQTRFKNPEEFGKVTLRVNSDGSVVRLKDVARVELGGENYNVIARINGKPAAGLGIKLATGANALDTAKAIKAKLAELQPFFPQGMKVLYPYDTTPFVQLSIHEVVKTLFEAIMLVFLVMYLFLQNMRATLIPTIAVPVVLLGTFAILAAFGYSINTLTMFGMVLAIGLLVDDAIVVVENVERVMMEDKLPPKEATEKSMSQIQGALVGIAMVLSAVFIPMAFFGGSTGAIYRQFSITIVSAMALSVLVALILTPALCATLLKPVSAEHHENKGGFFGWFNTTFDHSVNHYTNSVGKILGSTGRYLLIYALIVAGMVVLFLRLPSSFLPEEDQGVFLTMIQLPAGATQERTQKVLDQVTDYYLKNEKANVESVFTVNGFSFSGQAQNAGMAFVSLKPWEERNGDENSAEAVIHRAKMELGKIRDGFVIPFNMPAIVELGTATGFDFELIDQAGLGHDALTQARNQLLGMAAQHPASLVSVRPNGLEDTAQFKLEVDQEKAQALGVSLSDINQTISTALGGTYVNDFIDRGRVKKLYVQADAKFRMLPEDVDKLYVRSANGEMVPFSAFTTSHWVYGSPRLERYNGLPSMEIQGEAAPGTSSGDAMALMENLASKLPAGIGYDWTGMSYQERLSGNQAPALVAISFVVVFLCLAALYESWSIPVSVMLVVPLGIVGVLLAATLFNQKNDVYFMVGLLTTIGLSAKNAILIVEFAKDLMEKEGKGVVEATLMAVRMRLRPILMTSLAFILGVLPLAISNGAGSGAQNAVGIGVMGGMVSATLLAIFFVPVFFVVIRRCFKG
total protein half-life in vivo [2]: 5.63 h
total protein half-life in vivo [9]: 8.2 h

MANIEIRQETPTAFYIKVHDTDNVAIIVNDNGLKAGTRFPDGLELIEHIPQGHKVALLDIPANGEIIRYGEVIGYAVRAIPRGSWIDESMVVLPEAPPLHTLPLATKVPEPLPPLEGYTFEGYRNADGSVGTKNLLGITTSVHCVAGVVDYVVKIIERDLLPKYPNVDGVVGLNHLYGCGVAINAPAAVVPIRTIHNISLNPNFGGEVMVIGLGCEKLQPERLLTGTDDVQAIPVESASIVSLQDEKHVGFQSMVEDILQIAERHLQKLNQRQRETCPASELVVGMQCGGSDAFSGVTANPAVGYASDLLVRCGATVMFSEVTEVRDAIHLLTPRAVNEEVGKRLLEEMEWYDNYLNMGKTDRSANPSPGNKKGGLANVVEKALGSIAKSGKSAIVEVLSPGQRPTKRGLIYAATPASDFVCGTQQVASGITVQVFTTGRGTPYGLMAVPVIKMATRTELANRWFDLMDINAGTIATGEETIEEVGWKLFHFILDVASGKKKTFSDQWGLHNQLAVFNPAPVT
total protein half-life in vivo [12]: 4.25 ± 0.3 h
total protein half-life in vivo [1]: 2.43 h
total protein half-life in vivo [5]: 2.1 ± 0.18 h
total protein half-life in vivo [6]: 3.22 ± 0.48 h
total protein half-life in vivo [7]: 3.39 ± 0.27 h
total protein half-life in vivo [11]: 3.6 h

From the supplement of paper PMC11246515
